Patent CN113754772A (SUNSHINE GUOJIAN PHARMACEUTICAL SHANGHAI CO LTD, dated 2021)
One block for each binder: values may come before it.

Legend:
[1] = target: KDR on KDR/NFAT-RE HEK293 cells (UniProt P35968 20-1356); experiment: cell-based or functional assay
KDR-ECD-His蛋白 [2] = target: T1, KDR-ECD-His蛋白 (human, UniProt P35968 20-764); experiment: ELISA, KDR-ECD-His coated, HRP-anti-Fab
T1 construct: extracellular domain; Made in HEK-293E cells with an added N-terminal signal peptide (not part of the mature protein); also called KDR抗原

PDL1-ECD-hFc蛋白 [3] = target: T2, PDL1-ECD-hFc蛋白 (human, UniProt Q9NZQ7 19-238); experiment: bridging ELISA: PDL1-ECD-hFc coated, antibody, then KDR-ECD-His, detected with HRP-anti-His
T2 construct: extracellular domain; PDL1-ECD-His with its C-terminal tag exchanged for hFc; not shown: hFc tag in place of the His tag

[4] = target: PD-L1 on PD-L1 aAPC/CHO-K1 cells (UniProt Q9NZQ7 19-290, limits assumed); experiment: cell-based or functional assay
PDL1-ECD-His蛋白 = target: T3, PDL1-ECD-His蛋白 (human, UniProt Q9NZQ7 19-238); experiment: ELISA, PDL1-ECD-His coated, HRP goat anti-human Fc
T3 construct: extracellular domain; Made in HEK-293E cells with an added N-terminal signal peptide (not part of the mature protein); also called PD-L1抗原

PD-L1 on N87-PDL1 cells = target: T4, PD-L1 on N87-PDL1 cells (UniProt Q9NZQ7 19-290, limits assumed); experiment: flow cytometry on N87-PDL1 cells, FITC goat anti-human Fc
T4 construct: whole, on cells; also called N87-PDL1细胞

KDR-ECD-His蛋白 [5] = target: T1, KDR-ECD-His蛋白; experiment: bridging ELISA: PDL1-ECD-hFc coated, antibody, then KDR-ECD-His, detected with HRP-anti-His
PDL1-ECD-hFc蛋白 [6] = target: T2, PDL1-ECD-hFc蛋白; experiment: bridging ELISA: PDL1-ECD-hFc coated, antibody titrated, then 1 μg/ml KDR-ECD-His, HRP-anti-His (binding of both antigens at once)

KDR on KDR/NFAT-RE HEK293 cells, sequence (P35968 20-1356): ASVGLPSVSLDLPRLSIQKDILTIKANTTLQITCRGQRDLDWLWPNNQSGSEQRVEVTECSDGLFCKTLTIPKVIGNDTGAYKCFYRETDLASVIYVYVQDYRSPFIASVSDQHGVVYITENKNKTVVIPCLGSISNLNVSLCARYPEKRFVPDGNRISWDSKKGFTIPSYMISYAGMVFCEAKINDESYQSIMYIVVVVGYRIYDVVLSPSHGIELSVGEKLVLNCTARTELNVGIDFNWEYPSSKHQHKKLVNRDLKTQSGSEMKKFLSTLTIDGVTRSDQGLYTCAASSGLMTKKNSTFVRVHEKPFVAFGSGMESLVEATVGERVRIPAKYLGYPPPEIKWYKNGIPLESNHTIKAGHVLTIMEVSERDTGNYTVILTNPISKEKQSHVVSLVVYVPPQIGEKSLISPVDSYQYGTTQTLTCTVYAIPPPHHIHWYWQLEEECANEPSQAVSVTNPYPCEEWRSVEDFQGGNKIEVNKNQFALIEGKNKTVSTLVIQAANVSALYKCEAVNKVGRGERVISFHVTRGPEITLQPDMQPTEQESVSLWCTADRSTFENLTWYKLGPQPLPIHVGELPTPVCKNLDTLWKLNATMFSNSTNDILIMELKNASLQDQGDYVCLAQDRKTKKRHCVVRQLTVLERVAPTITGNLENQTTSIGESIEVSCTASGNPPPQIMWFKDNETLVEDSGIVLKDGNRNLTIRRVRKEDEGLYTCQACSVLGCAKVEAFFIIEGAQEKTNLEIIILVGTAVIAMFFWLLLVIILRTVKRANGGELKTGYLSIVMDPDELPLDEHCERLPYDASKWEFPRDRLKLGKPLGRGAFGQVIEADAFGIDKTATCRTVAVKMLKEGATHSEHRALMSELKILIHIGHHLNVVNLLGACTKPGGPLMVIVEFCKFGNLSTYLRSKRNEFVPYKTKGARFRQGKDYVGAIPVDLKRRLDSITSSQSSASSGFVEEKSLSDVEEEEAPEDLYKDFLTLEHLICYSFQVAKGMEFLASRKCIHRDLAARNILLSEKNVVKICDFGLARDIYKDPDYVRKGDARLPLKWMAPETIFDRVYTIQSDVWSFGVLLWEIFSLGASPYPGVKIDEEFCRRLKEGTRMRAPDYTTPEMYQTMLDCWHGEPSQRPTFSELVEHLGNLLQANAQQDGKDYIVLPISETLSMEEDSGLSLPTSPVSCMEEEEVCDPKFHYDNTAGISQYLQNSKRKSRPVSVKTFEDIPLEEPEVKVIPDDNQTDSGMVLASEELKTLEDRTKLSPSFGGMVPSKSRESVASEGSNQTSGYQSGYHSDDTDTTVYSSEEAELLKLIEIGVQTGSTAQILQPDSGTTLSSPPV
PD-L1 on PD-L1 aAPC/CHO-K1 cells, sequence (Q9NZQ7 19-290 limits assumed): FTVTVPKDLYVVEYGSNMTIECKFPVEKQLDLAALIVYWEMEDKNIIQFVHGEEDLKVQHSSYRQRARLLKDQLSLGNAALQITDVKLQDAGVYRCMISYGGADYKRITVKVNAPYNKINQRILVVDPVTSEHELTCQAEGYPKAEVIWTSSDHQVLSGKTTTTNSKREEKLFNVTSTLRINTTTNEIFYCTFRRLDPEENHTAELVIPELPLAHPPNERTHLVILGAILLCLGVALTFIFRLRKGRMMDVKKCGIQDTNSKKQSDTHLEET
T4 sequence (Q9NZQ7 19-290 limits assumed): as above
T2 sequence (Q9NZQ7 19-238): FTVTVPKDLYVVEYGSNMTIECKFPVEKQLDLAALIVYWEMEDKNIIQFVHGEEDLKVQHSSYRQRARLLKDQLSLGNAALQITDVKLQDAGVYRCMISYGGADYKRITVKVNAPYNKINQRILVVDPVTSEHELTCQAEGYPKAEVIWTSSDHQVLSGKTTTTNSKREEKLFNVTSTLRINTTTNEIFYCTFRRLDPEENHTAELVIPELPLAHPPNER
T1 sequence (P35968 other isoform, or with tags, fused parts or gaps): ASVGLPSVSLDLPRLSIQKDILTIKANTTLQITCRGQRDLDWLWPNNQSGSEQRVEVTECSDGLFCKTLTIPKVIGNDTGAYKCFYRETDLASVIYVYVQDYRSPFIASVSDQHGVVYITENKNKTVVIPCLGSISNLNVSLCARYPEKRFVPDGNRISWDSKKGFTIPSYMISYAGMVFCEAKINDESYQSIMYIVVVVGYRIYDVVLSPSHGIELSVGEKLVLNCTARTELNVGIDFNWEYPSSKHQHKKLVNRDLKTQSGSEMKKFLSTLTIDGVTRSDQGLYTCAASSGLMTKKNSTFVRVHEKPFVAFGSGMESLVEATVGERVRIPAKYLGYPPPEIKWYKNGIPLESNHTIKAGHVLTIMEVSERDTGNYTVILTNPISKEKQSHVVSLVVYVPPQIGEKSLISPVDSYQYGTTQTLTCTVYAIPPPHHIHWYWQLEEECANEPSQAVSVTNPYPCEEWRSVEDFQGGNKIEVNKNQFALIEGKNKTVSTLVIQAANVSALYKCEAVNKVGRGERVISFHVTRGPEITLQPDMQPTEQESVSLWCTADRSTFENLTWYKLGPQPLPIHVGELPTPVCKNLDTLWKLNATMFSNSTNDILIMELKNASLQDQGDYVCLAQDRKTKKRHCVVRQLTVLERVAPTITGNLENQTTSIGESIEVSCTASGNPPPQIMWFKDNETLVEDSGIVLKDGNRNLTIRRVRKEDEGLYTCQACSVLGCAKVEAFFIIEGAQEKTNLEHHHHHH
T3 sequence (Q9NZQ7 other isoform, or with tags, fused parts or gaps): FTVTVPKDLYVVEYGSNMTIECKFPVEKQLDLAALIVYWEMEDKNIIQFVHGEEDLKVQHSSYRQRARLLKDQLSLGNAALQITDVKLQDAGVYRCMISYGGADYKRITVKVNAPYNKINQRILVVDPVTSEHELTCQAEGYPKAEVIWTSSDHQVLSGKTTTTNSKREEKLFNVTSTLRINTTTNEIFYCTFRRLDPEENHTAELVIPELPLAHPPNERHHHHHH

B1: 抗KDR单抗 (anti-human KDR monoclonal antibody) (antibody, V domains shown)
VH: EVQLVESGGGLVKPGGSLRLSCAASGFTFSSYSMNWVRQAPGKGLEWVSSISSSSSYIYYADSVKGRFTISRDNAKNSLYLQMNSLRAEDTAVYYCARVTDAFDIWGQGTLVTVSS
VL: VLTQPPSVSGAPGQRVTISCTGSHSNFGAGTDVHWYQHLPGTAPKLLIHGDSNRPSGVPDRFSGSKSGTSASLAITGLQAEDEADYYCQSYDYGLRGWVFGGGTKLTVL
notes: Whole monoclonal antibody; CDRs from clone 3A10 of Dan Lu et al. 2003, frameworks mutated in house; also called 抗人KDR单抗; anti-KDR mAb
IC50 (luminescence, VEGF Bioassay) [1]: 3.1 nM
EC50 (KDR-ECD-His蛋白 [2]): 0.26 nM
binding result (PDL1-ECD-hFc蛋白 [3]): no binding (tested: 12nM)

B3: anti-PDL1×KDR BsAb2 (bispecific antibody)
heavy (part 1 of 2): QVQLQQSGGGLVKPSQSLSLTCTVSGFSLTSYGVHWVRQPPGKGLEWIGLIWSGGGTDYNPSLKSRLTISRDTSKNQVSFKISSLTAADTAVYYCARQLGLRAMDYWGQGTSVTVSS
heavy (part 2 of 2): GGGGSGGGGSGGGGSEVQLVESGGGLVKPGGSLRLSCAASGFTFSSYSMNWVRQAPGKGLEWVSSISSSSSYIYYADSVKGRFTISRDNAKNSLYLQMNSLRAEDTAVYYCARVTDAFDIWGQGTLVTVSSGGGGSGGGGSGGGGSGGGGSVLTQPPSVSGAPGQRVTISCTGSHSNFGAGTDVHWYQHLPGTAPKLLIHGDSNRPSGVPDRFSGSKSGTSASLAITGLQAEDEADYYCQSYDYGLRGWVFGGGTKLTVL
light: EIVLTQSPDFLSVTPKEKVTITCRASQSIGTTIHWYQQKPDQSPKLLIKYASQSFSGVPSRFSGSGSGTDFTLTINSVEAEDAATYYCQQSNSWPLTFGAGTKLEIKRTVAAPSVFIFPPSDEQLKSGTASVVCLLNNFYPREAKVQWKVDNALQSGNSQESVTEQDSKDSTYSLSSTLTLSKADYEKHKVYACEVTHQGLSSPVTKSFNRGEC
notes: also called 抗PDL1×KDR双抗; not shown: CH1-CH2-CH3 heavy chain constant region
IC50 (luminescence, PD-1/PD-L1 Blockade Bioassay) [4]: 0.22 nM
IC50 (luminescence, VEGF Bioassay) [1]: 6.09 nM
EC50 (KDR-ECD-His蛋白 [2]): 0.23 nM
EC50 (PDL1-ECD-His蛋白): 0.14 nM
EC50 (PD-L1 on N87-PDL1 cells): 0.15 nM
EC50 (PDL1-ECD-hFc蛋白 [6]): 0.14 nM

B5: anti-PDL1×KDR BsAb3 (bispecific antibody, human IgG1, lambda)
heavy: not shown
light: VLTQPPSVSGAPGQRVTISCTGSHSNFGAGTDVHWYQHLPGTAPKLLIHGDSNRPSGVPDRFSGSKSGTSASLAITGLQAEDEADYYCQSYDYGLRGWVFGGGTKLTVLGQPKAAPSVTLFPPSSEELQANKATLVCLISDFYPGAVTVAWKADSSPVKAGVETTTPSKQSNNKYAASSYLSLTPEQWKSHRSYSCQVTHEGSTVEKTVAPTECS
notes: also called 抗PDL1×KDR双抗
IC50 (luminescence, PD-1/PD-L1 Blockade Bioassay) [4]: 0.3 nM
IC50 (luminescence, VEGF Bioassay) [1]: 4.35 nM
EC50 (KDR-ECD-His蛋白 [2]): 0.41 nM
EC50 (PDL1-ECD-His蛋白): 0.15 nM
EC50 (PD-L1 on N87-PDL1 cells): 0.21 nM
EC50 (PDL1-ECD-hFc蛋白 [6]): 0.2 nM

The remaining lines, values ahead:

IC50 (luminescence, PD-1/PD-L1 Blockade Bioassay) [4]: 0.23 nM
EC50 (PDL1-ECD-His蛋白): 0.13 nM
EC50 (PD-L1 on N87-PDL1 cells): 0.13 nM
binding result (KDR-ECD-His蛋白 [5]): no binding (tested: 12nM)
B2: 抗PD-L1单抗 (anti-human PD-L1 monoclonal antibody M8) (antibody, V domains shown)
VH: B3 heavy (part 1 of 2)
VL: EIVLTQSPDFLSVTPKEKVTITCRASQSIGTTIHWYQQKPDQSPKLLIKYASQSFSGVPSRFSGSGSGTDFTLTINSVEAEDAATYYCQQSNSWPLTFGAGTKLEIK
notes: also called 抗人PD-L1单抗M8; anti-PDL1 mAb

IC50 (luminescence, PD-1/PD-L1 Blockade Bioassay) [4]: 0.27 nM
IC50 (luminescence, VEGF Bioassay) [1]: 13.5 nM
EC50 (KDR-ECD-His蛋白 [2]): 0.23 nM
EC50 (PDL1-ECD-His蛋白): 0.13 nM
EC50 (PD-L1 on N87-PDL1 cells): 0.15 nM
EC50 (PDL1-ECD-hFc蛋白 [6]): 0.13 nM
B4: anti-PDL1×KDR BsAb1 (bispecific antibody)
heavy (part 1 of 2): B3 heavy (part 1 of 2)
heavy (part 2 of 2): GGGGSGGGGSGGGGSVLTQPPSVSGAPGQRVTISCTGSHSNFGAGTDVHWYQHLPGTAPKLLIHGDSNRPSGVPDRFSGSKSGTSASLAITGLQAEDEADYYCQSYDYGLRGWVFGGGTKLTVLGGGGSGGGGSGGGGSGGGGSEVQLVESGGGLVKPGGSLRLSCAASGFTFSSYSMNWVRQAPGKGLEWVSSISSSSSYIYYADSVKGRFTISRDNAKNSLYLQMNSLRAEDTAVYYCARVTDAFDIWGQGTLVTVSS
light: B3 light
notes: as for B3
